Target: T1, 2×Strep–RNF213 (WT human RNF213) (human, UniProt Q63HN8 1-5207)
T1 construct: RNF213, human E3 ubiquitin ligase; plasmid pOP806_pACEBac1 2×Strep–RNF213; the N terminus (residues 1–398) is not resolved in the maps; source: Sf9, purified (StrepTrap HP)
Assay: cryo-EM structure; RNF213 (around 2 μM) mixed with a fivefold molar excess of IpaH1.4/2.5 (10 μM), incubated on ice for 30 min, vitrified on all-gold grids
Settings: both partners purified

T1 sequence (Q63HN8 whole entry, the tested form may be a part): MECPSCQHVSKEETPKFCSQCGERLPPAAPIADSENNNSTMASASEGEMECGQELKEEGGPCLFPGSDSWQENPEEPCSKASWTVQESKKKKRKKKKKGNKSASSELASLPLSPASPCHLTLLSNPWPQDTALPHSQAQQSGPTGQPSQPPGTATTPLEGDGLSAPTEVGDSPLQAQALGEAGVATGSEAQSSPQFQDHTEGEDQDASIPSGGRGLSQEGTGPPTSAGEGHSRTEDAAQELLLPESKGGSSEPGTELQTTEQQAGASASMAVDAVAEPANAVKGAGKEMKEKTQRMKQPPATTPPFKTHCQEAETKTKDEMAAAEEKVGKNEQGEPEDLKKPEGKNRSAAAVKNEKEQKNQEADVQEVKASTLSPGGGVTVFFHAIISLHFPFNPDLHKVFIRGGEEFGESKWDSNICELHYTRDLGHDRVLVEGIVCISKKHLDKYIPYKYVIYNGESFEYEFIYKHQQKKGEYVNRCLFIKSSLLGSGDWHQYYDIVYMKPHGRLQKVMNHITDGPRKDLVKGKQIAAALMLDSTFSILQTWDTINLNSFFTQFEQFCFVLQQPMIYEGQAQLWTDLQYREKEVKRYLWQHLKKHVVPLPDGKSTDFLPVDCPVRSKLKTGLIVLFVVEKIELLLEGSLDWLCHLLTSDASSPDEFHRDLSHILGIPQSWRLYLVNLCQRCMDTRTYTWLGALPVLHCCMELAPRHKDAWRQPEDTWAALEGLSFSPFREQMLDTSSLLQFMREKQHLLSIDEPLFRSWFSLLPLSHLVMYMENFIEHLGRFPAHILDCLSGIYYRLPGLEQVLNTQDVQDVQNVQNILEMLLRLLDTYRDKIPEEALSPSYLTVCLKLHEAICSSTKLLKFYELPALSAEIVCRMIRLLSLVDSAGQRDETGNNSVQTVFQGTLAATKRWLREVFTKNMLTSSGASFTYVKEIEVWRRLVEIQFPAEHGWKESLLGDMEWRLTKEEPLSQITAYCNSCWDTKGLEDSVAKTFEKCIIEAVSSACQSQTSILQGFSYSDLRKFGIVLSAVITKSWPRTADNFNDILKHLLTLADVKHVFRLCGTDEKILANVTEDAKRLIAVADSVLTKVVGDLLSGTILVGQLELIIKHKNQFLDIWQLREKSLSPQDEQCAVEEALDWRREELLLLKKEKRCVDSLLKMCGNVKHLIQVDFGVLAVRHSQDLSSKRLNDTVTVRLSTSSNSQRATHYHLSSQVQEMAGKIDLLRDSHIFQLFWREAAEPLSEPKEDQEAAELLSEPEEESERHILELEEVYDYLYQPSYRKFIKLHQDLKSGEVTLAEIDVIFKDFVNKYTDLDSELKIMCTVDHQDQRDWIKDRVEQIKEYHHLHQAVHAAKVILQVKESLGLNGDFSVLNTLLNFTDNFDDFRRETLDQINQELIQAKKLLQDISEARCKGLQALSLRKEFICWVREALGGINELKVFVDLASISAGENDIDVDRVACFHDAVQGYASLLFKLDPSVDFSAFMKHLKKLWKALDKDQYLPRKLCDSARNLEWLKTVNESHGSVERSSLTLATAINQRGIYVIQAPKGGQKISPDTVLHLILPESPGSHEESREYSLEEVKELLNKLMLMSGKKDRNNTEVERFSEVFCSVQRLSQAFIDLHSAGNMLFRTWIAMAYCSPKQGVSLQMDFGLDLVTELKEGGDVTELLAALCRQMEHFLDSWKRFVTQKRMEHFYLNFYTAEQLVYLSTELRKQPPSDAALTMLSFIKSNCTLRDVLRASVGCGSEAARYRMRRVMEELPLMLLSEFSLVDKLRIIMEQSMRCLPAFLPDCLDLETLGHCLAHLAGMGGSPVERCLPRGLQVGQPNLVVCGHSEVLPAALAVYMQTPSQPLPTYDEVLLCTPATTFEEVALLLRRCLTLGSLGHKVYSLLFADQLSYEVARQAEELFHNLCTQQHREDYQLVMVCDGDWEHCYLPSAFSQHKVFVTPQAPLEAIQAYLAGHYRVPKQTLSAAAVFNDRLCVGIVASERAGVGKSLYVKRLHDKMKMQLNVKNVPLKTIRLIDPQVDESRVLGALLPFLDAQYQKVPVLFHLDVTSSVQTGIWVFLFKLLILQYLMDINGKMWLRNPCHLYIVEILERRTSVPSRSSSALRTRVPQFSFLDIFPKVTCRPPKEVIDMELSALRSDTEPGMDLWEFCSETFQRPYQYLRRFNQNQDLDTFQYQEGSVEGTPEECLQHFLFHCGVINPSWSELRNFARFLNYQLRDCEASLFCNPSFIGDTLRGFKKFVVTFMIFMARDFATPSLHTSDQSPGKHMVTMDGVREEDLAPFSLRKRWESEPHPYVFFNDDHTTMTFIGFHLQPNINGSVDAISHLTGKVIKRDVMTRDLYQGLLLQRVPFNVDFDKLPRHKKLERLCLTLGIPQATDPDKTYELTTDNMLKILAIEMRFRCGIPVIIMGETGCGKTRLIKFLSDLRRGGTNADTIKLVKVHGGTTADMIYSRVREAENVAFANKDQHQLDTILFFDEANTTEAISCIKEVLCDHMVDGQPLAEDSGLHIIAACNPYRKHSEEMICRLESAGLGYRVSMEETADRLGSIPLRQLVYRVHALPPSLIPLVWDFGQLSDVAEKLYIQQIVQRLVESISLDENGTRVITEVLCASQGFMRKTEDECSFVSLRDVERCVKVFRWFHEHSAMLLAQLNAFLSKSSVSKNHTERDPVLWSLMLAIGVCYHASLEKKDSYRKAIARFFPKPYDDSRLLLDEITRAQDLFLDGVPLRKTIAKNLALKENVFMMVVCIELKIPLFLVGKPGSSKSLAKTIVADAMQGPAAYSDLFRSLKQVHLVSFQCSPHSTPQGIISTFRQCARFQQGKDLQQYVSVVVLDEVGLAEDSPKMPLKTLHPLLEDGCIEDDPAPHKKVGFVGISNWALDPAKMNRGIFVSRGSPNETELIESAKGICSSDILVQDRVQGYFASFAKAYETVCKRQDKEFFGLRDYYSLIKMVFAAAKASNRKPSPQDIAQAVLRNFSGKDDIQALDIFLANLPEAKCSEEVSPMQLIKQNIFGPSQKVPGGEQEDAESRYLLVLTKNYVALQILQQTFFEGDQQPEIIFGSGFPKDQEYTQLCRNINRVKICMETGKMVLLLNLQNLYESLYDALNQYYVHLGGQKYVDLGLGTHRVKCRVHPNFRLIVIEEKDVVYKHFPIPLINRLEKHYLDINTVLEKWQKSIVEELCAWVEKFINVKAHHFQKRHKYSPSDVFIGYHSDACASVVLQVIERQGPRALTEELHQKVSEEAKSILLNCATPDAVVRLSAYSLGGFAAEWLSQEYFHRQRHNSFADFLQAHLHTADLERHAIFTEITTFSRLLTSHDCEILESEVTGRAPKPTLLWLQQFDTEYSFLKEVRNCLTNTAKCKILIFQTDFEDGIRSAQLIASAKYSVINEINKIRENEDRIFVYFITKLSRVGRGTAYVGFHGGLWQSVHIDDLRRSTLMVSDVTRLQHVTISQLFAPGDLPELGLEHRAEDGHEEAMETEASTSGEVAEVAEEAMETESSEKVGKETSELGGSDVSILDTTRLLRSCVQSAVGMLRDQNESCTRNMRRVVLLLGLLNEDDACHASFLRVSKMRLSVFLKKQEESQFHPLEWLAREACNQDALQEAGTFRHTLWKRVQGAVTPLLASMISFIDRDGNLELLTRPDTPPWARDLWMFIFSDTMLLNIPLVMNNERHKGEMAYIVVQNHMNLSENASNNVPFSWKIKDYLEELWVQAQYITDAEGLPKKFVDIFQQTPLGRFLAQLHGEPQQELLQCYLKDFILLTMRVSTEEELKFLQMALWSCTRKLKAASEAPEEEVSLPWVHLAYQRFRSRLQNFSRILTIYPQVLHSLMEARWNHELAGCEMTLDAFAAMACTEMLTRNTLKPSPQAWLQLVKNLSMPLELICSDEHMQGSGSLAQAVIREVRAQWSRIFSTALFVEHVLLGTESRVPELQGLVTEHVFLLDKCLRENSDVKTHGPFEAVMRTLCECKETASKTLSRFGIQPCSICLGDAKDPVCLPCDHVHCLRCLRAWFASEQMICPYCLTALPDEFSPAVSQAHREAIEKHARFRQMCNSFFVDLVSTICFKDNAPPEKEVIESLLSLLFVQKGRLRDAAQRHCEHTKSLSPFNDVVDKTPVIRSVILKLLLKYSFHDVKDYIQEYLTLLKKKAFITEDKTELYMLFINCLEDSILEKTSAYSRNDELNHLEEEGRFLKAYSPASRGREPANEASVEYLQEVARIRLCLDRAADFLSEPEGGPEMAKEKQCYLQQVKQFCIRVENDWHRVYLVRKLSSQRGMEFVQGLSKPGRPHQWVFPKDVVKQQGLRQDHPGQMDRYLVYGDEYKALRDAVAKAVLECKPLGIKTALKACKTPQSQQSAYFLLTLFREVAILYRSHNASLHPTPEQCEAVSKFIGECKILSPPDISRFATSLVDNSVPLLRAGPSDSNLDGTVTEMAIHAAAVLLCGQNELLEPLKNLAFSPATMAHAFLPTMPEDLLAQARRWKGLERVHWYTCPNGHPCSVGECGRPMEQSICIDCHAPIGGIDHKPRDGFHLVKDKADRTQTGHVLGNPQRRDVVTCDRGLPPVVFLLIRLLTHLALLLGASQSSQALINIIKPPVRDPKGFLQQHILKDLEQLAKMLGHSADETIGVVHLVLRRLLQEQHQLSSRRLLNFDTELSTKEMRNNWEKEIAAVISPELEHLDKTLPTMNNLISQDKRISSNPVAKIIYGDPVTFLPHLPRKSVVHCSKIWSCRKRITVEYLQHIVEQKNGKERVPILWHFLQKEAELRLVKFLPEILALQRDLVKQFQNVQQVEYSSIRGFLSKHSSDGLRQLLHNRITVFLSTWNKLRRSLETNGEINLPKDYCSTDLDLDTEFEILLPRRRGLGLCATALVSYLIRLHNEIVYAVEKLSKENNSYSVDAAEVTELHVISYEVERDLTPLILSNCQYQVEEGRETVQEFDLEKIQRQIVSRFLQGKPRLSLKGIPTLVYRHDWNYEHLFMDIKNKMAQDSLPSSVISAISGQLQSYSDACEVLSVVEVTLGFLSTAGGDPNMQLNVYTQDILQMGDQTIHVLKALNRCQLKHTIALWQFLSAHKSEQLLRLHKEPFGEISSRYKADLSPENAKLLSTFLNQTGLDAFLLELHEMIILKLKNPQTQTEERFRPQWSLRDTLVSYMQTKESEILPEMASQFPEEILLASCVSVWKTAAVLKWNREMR

B1: IpaH1.4 (untagged, recombinant) (enzyme)
chain: MIKSTNIQAIGSGIMHQINNVYSLTPLSLPMELTPSCNEFYLKTWSEWEKNGTPGEQRNIAFNRLKICLQNQEAELNLSELDLKTLPDLPPQITTLEIRKNLLTHLPDLPPMLKVIHAQFNQLESLPALPETLEELNAGDNKIKELPFLPENLTHLRVHNNRLHILPLLPPELKLLVVSGNRLDSIPPFPDKLEGLALANNFIEQLPELPFSMNRAVLMNNNLTTLPESVLRLAQNAFVNVAGNPLSGHTMRTLQQITTGPDYSGPQIFFSMGNSATISAPEHSLADAVTAWFPENKQSDVSQIWHAFEHEEHANTFSAFLDRLSDTVSARNTSGFREQVAAWLEKLSASAELRQQSFAVAADATESCEDRVALTWNNLRKTLLVHQASEGLFDNDTGALLSLGREMFRLEILEDIARDKVRTLHFVDEIEVYLAFQTMLAEKLQLSTAVKEMRFYGVSGVTANDLRTAEAMVRSREENEFTDWFSLWGPWHAVLKRTEADRWAQAEEQKYEMLENEYSQRVADRLKASGLSGDADAEREAGAQVMRETEQQIYRQLTDEVLALRLSENGSNHIA
notes: IpaH1.4, secreted E3 ubiquitin ligase effector of Shigella flexneri; open reading frame cloned into pETM-30; only the LRR domain is resolved in the map; also called WT IpaH1.4; not shown: 6xHis, N-terminal, cleaved; GST, N-terminal, cleaved
- binding result: binds

Source: paper PMC12440826, “Shigella flexneri evades LPS ubiquitylation through IpaH1.4-mediated degradation of RNF213” (Nature Structural & Molecular Biology, 2025)
